The record followed here is the NTF2 design screens of Basanta et al. (2020).

The data set is described as follows: protease stability score; higher = more stable; yeast display proteolysis, trypsin and chymotrypsin.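 Also: log10 excess protease needed over predicted unfolded state with 0 meaning unfolded.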
Sequence “DDDHATEIAKRMIDNFTTGNEENVKRLVDPNATVRIGDKRFHGRDHIRDAIRQIKERIDHIQVRTFTAHNGRIRITAEVKINGQSKEIHIELRIHNGHVVFFQLNVRNEEEWKTALS” returned a protease stability score of 1.05.
As for “DEKEMQEFAKEVVKMLQTGDERKNERNVDKDVRVKIGEKVLHGREDNSKWIQEWRDRVDHIRIDHVHVHGEKVIVTVTAVVNGVEVEFQMVMEVHNGRAENVQVKYRNPDELRRFKS”, the protease stability score is -0.263.
As for “DDDAQRVLNEFWRHWRRGNEEELKKLVDPNAQFEVGNKTFHGREHYANYLRRVSEEMTFDINIKDMSVEGDQVVIDATIMVQVNGNPISIKVIWRANATNGKIKYLSLQIDEDMVRQQQS”, the protease stability score was 0.445.
The result for “DDHAQRHLKELLKVINTGDEEEVEHMADPNARIQVGDKVFHGMRSYVDDIRRKKEELNVEYNVRRMDADGNRVEANVDVVFNHNGKPDRRTVDMKATIRNGKIKSMHWQENP” reads -0.227.
With “DEELHEVVERLLQALRNGDPDQFKKNVDPNVKIVVGETQYHGREEAAHQLHQEHNNSSFQYVSVDVQVHGNKVVIDQRRRETQNGQPDSENFSEEAEAHNGKFKHIRQRSTK”, the protease stability score is -0.235.
Turning to “DEDAERRMREQLKVFNRGNPDQMVKYMDKDARIEVGDTVVEGREDWRHEIDKQKKEAKYKIDVKRVDVDGDDLTIDATISVDHNGKPREKKLIVEAKLHNGKLKHARYDNRG”, the protease stability score is -0.05.
Regarding “DDHETAKQIMETWKQIVEDGDEHQAQRMADPNVHANIGDHTVHGKEEFKKMLRTWRDRVDRIEVTFRHIEVTGNKLIVVVDVRLDVNGKEIHVHMVLNAQKQGDEAKVETVVVE”, the protease stability score was found to be 1.24.
The result for “EEHVKHIVDQLIKVLQHNDEKLWERLVDPNAEIRVGDKSIRGRERFSEEVRRQKHQARMQWKSVQVDVHGDKAVLHFSAEFQVNGQPADFDVTMHIQVHNGTVKRMFVQVPEKDVQRKTS” reads 0.459; that for “DHEVAKTMMEEWQKALENGDDKKLKELYDPDGEWEADDEQDQGTEVIEKLMEKVKKQGLKFQVRKAKVEGDKFTVVYDLHVGNKTATFEVEVHVEGGRIKKVKAKADEEAKKLITEG”, 1.98; that for “DEDAQKTVRKFLENITTGNPENAEKLLDPNVHIHYGDKRVSGRDQFHREAKQKLHDMRLSIDIKEVQVQGNRIDVDVRFSVNHNGRPYTITAHLSIEMSNGHIEHMELRIDESDKRRQKR”, -0.237.
For the sequence “DDNEVETVRELIEQLETGDPDKFKEMVDKDVNINVGNKHVHGREEAVEQIRKEAREISFRIKVDRVEAHNGHVRVDFKFDAEVNGQPRSFRAIMVLEIEDGVVKHIELQMDRNQQQRLEK”, the protease stability score is 1.1.
Regarding “DHKLHHQLHRLIKALQTGDPDKIRELVDPNVEFVVGEKRYKGREDYVTDFKERLDHIRLDNDVRDVEVHGNKMRANIQTEVQDDGQPRTYQVRLDASAHNGKVKSLKVDKKP”, the protease stability score was -0.059.
Turning to “DHTKIARRLMEDLTDARRHNDPHHVKNLLDKDVKIRVGDKSVDGEEEATKQMIERQRRADHIEMRIKSVSTHNGQLRIIFDVREVHNGQEHTDREEVQFDNENGKVRMVNVQQK”, the protease stability score was -0.056.
Turning to “DEEQMKKVVEQLLQALQNKDPEKIVQLVDEDVEFTLVDEKYKGHEDVRKLVKKLVDAGAEFRIDRHEATGDQAHVDTQWKVGDYTLKVTVTYVVRDDKVEKVEIRWSEEAKKAMKEG”, the protease stability score was determined as 1.11.
For “DEKKALEVIDRALKYVKNGNKEQVQQMGAPDVEVQNGDARNKGVEEMKKFAERVKKAGNQFEYKEKTTKGNKVKTVVQVTVNGQTIEYEVEVVAEGGKVKHWVVKMDETFKKVVDKS”, the protease stability score is 0.008.
The result for “EDEELRKMVKQWEKGDPDQLLRYADEDAEFKVGDQQFHGREQLKHYIKRLKHRVDHFQIRKVTREGDRVRIDAFQVVNGRKIVYVFVLEVKNGRLKRLTMDFRDEKDERHFRTMLK” reads 0.902.
In turn, “DEEHAHEMLKVVKVLIEGDPDQAHDMVDPNARFKVGDQTFSGRESFRNHVRHTNEESSLHLKSLDAQDHGDKVTIKVEFVRDTNGNPRHMRLEVRARLHNGRVTHAEFEDRK” gave a protease stability score of -0.001.
With “DEEDEEVVRQWLEAYKTGDPDQLKRNADPNARIQVGDKVLHGMEDAKTELKEQRDHQRFRFHMDSVSVHGNRVEITMKADVDVNGRPIHFTNSFVFTLHNGKIRHIDLQVPEELKHQMTK”, the protease stability score was -0.125.
The result for “DEEDDKKMAETLKRLHNTGNPDELLKHFDPDAKFQIGEKTVHGREQAQEFMKRIKDRVDHQSVDSIHAHNGQVNVQVKVEINGKTRVVDIVYHFHNGRFKQVVFDPRAIRRMKS” reads 0.175; that for “DERNIERARKWWEALQENNPDQARKLMDKDVTFTYGDKTYHGREDIAKDIHRRLENMRVEIKSMTLEDHNGRVDAQVDLVVDVNGQPRQVTLDAKVNVENGRVKEFNVQFDEQLRHDIQK”, 0.132; that for “DEEVKSRADEFIKALKTGDPETISRLMDPNAQVEVGDKTIHGRENIMREIHNLKHRMNLSMEINNVDVQGDTVNIDAVVRFTHNGKPSEHKVDIQVVAQGDKIDHVVFDSTK”, 1.22.
Regarding “DEDVQKIAETFWRVLKQGNEDDARRLIDPNARINVGNKNYHGREQIAEIIKKKKEEIRFSIDDVKVRVHNGELTASIDFKVNVNGRPDSIHVEFRMVVHNGKIVQIQMQVDEDWMKELES”, the protease stability score was 0.788.
Turning to “DERAADAIERLLKAMKDNDPSELSKQADENVHFDVGEKKYHGMETYARTVAKERHDAEQTYRLKDYRVDENHVSFNMRVVQTNNGKPVDVEAILRANVKGDKVKSMRIDEHK”, the protease stability score is -0.23.
Consider “DEKKALTLAKKAFEVIKKGDKEKAKKLGKPDVKYEYLDKKYTGPEAMEHIVEYVQKLGMEVRVKRNEEKGGTVRVDFDYQRGDQQVRTTAEVEYEGDKLKRFRVEMSEEVKKHITQG”, for which the protease stability score was determined as 0.093.
“DDEAMKQFRHWVEAYTTGDSQRLRELVDPNATVRVGDKTYTGMEDIAKNIHQQVRRQRFHVELKRVNNQPNRIEVDLDVTFNVNGKPIRIRLRMQAEMHNGRFKYIEVRFDPDEQRKLES” returned a protease stability score of 0.861.
“DDSLLDKVKEIFSVMRTGDPDKMKKLADKHATFEVGDKQIHGREELSEIMRRRRDEQKVSVEVKRVKKQGDTANIVFTVTNNHNGTPKVETQTMTVNMSNGKITYVNVQNDK” registered a protease stability score of -0.007.
For the sequence “DEEAIHRMEEFIKNVNNNNEEKLKELADPNVDAHIGDKVIHGMERIVTELVKELENIDIEYKDMRVEDRGDNIHIQIRAIFHHNGKPQEHTQIIDVQVENGKVKKMRRSSDS”, the protease stability score came to 0.185.
Sequence “DEELQDTAHKLLKLRQRGNWKHVQEMFDENARRIVGDKTLTGMTEIAEEVKREHEQWHLKITDLKASVEGDKVDIKFHAVFDVNGHPVTVNAMVVIVNQGDKAKRIQIRIPESVLNRINQ” yielded a protease stability score of 0.292.
In turn, “DEEEEKQLEDIWKENDWQKWANDADPNVRVNIGDETLHGREDLQRWAQLVRKRYDHVKIESVRFHNGRADVEVNVVVDGEQFRYKLTIQLHNGRVKHMKIQATDEQVKTLLDQMRS” came in with a protease stability score of 1.59.
“DEKALRQFEKFMEAIKNGDEEKVVQLVDPNATVRYGDKKVEGREQIKDQMKKLHEEMRIQVNSVDVEDHNGRAHVRIDVIQEHNGTPDRAQLRANMSASNGRIKDLEFTKTK”: the protease stability score is -0.148.
The result for “DEETHANEFLKTREKALTSNDETELRRLVPPDVRFQVGDKQIHGREEWARKLKDDRTRVDHVTVRVVSITVRPNHIKVNLQEEVVVNGTRSRDRYEAHIVNENGHMQMHSFRQQ” reads -0.396; that for “DQEDQQRLAEQFMRALDEGDSDTIAKLLDPNARVIVGDKTVHGHRHARRVIHEFRNRVDRVDVRTVEVDNGHVRIEAVLNFNGQRTRFVYHLKIDNGRFKEMQLRSK”, 0.892.
As for “DDEKLTTVLKELMKAFEKGDNKKFVDLLDKDVTIDYGDKKVHGRDEATEVFHKIRRQVDHVQVSDMKFENGRASIRATLHFNGKNMEVTFEAVIKNGRIKHAQVEVRDPDELRKMES”, the protease stability score was 1.03.
On to “DTRARDIARRFWEAIRKNDPDKIKNQADENADFKVGDKTIHGMDHIIHHWEKVNKHARFQWERMEIKDSPNHVDVKYQFIVDVDGEPKTINATAQFQFHNGRIKNYEIQVDPEQFKEITK”, for which the protease stability score worked out at 0.523.
The sequence “DEEEHAKQFLDKMHRAFENNNKDEVRKLADENARFEYGDKTYHGDEEFAKWMREIRERVDRVEMDLRSIEREGEKLNIRFEVKYKHNGNSDTQRWVFVIKHHNGDYVIEKLREQ” showed a protease stability score of 1.22.
“DDQELAEDAQRQFQEVLKTGDPKRANELMDEDARLEVGDTQLHGRERVAKHLSDLRKQADHIDVRVDTIRVHNGRVDADVRIRITKNGQNREFRARLYFTVQGDKVKMKRLQES” had a protease stability score of 1.38.
On to “DEHSIAEQLAHQFIRAQESGDPDQVDRLADENVRVQIGDKQVKGRDVVRRTMQTWRDRSDHITARLRDVSVRNGQINLLIELDYRQNGQTQHHTLVIVAEVHNGQVRMVQIEIR”, for which the protease stability score was -0.221.
In the case of “DEKAQTRVQDYLRALQNGDHKRLREYMDENVHLRVGDKEVHGRTTAANEIVKEVRNQEMSMSIKRVRASENHVQMEVVVQVEHNGKPREFSFQLNFKLENGQAKEIKYKIDPTVLKNIRK”, the protease stability score was 0.507.
With “DDENMSAFERWLHAVETGNPQKVKEQMDENAKLDVGEKDVTGMDEIRRQLEKEMKRMRVTIQRYDLQVHNGQVVVRQTVVNKNDGQPRRRTNVVHVDIRNGRIQRIIQRDDG”, the protease stability score was found to be 0.42.
“DEKEHEDVAQEAVHAVQSGDPKQMVEMADPNARVVVGDKTLHGHDRIEEMVKHLRKRADHVRIIDVQVQGDKVVIRFQVVVDGRTYDVYIDLRVHNGEAKEIRFDPRRQKEMHG” yielded a protease stability score of 0.758.
Take “DEEQNRRIDDMWRAEENGDENRMKELADPNVELQIGDKQVHGMDEYVKEAKKRRDKSEISIEIKQVEVHNGSVHVDFVFTENENGTPDSKRVHVNARFDNGKLKSMSQNDTE”: the protease stability score was 1.1.
The sequence “DEEAETVLKRWLTALRENDPQQAADLADPHAQFQIGEKTIRGREDLKRFMDEMLHHLRVDFTIDHVKVTGETVVVHFTVEFNVNGRPLRFEVVLVVKAENGKVKQLEQHMDDDQWRQVKS” showed a protease stability score of 0.358.
“DNDKLAKDAVDTMDEVLQDGDEKKLNDLFDPNARLRVGDHEIHGREQIHDWIKTRLNQIDHIEMRIVHVRREGEKALARVTFVNQHNGKQDEREAVYRFTVENGRATFEEVNIK” displayed a protease stability score of -0.116.
As for “DEEKILKIIDRAVKAIQNGNEEEIRKLGMPNGEAQVGNDRNHGQDALVVMVKMYQKLGNEFEYKEKREEGDQVTTVVQVTFGGTTVEYEVNVQAEGGHIKRWEVRVDETFMKHVEKS”, the protease stability score was -0.125.
As to “DDEKRKDILRKIKENWKRNDHDFFKDMADPNVRAKVGDKLLHGREELEKELREFKKRADHVEIKHVDVTGDNAEVEADIDINGQKRVMVFQVEVHNGKIKHIELDPDDQRKVQK”, the protease stability score came out at 0.145.
“DEENMHKLQEIIRTNDETKFNEMMDPNVEIEVGNKTYHGREEAIKFQRRVNQHVDKIQVDYVEVQGDSLRADYVVQVNGQNVRVDLEIRVEDGRAKEIRLNFRNEEEHKMYEKWLS” showed a protease stability score of 1.34.
The result for “DEEDRKSLHDLNRTGDEDEIAHNVDPNAKLDVGEFKVHGSEQVKKVMEELKKRIDHRHIRSISVRGDKLVARVQIDVNGQTAYYRLIIRVHNGRIKEINADYTSEDDKKAVNEAKS” reads 0.756.
